Data as given in PMC3672174.
“And” between values parts separate entries of the source, which are not always exact repeats. Equal values may be shown once.

Legend:
[1] = target: human serum amyloid A 1.1 with the N-terminal methionine (MetSAA1.1) (human) (UniProt P0DJI8); experiment: SEC; Superdex 200 10/300 GL, 4°C, protein refolded at 20 µM, ~30 µL loaded, column in TBS (20 mM Tris/200 mM NaCl, pH 8.3), 0.5 mL/min; sizes from MW standards, globular shape assumed; self-association
[2] = target: human serum amyloid A 1.1 with the N-terminal methionine (MetSAA1.1) (human) (UniProt P0DJI8); experiment: SEC; "cross-purified" proteins (MetSAA1.1 also passed through Histrap Ni-NTA; hSAA1.1 also purified by cation and anion exchange), compared with "regular" proteins, refolded at 20 µM, 4°C; self-association
[3] = target: human serum amyloid A 1.1 with the N-terminal methionine (MetSAA1.1) (human) (UniProt P0DJI8); experiment: SEC; as a1, protein refolded at 75 µM; self-association
[4] = target: human serum amyloid A 1.1 with the N-terminal methionine (MetSAA1.1) (human) (UniProt P0DJI8); experiment: SEC; as a1, protein refolded at 8.5 µM; self-association
[5] = target: human serum amyloid A 1.1 (hSAA1.1), without the N-terminal methionine (human) (UniProt P0DJI8); experiment: SEC; Superdex 200 10/300 GL, 4°C, protein refolded at 20 µM, ~30 µL loaded, column in TBS (20 mM Tris/200 mM NaCl, pH 8.3), 0.5 mL/min; sizes from MW standards, globular shape assumed; self-association
[6] = target: human serum amyloid A 1.1 (hSAA1.1), without the N-terminal methionine (human) (UniProt P0DJI8); experiment: SEC; as a1, protein refolded at 75 µM; self-association
[7] = target: human serum amyloid A 1.1 (hSAA1.1), without the N-terminal methionine (human) (UniProt P0DJI8); experiment: SEC; as a1, protein refolded at 8.5 µM; self-association

Substance	stoichiometry N [1]	stoichiometry N [2]	stoichiometry N [3]	stoichiometry N [4]	stoichiometry N [5]	stoichiometry N [6]	stoichiometry N [7]
human serum amyloid A 1.1 with the N-terminal methionine (MetSAA1.1) (from UniProt P0DJI8 19-122) (natural protein)	4 and 8	4	4 and 8	8 and 4			
human serum amyloid A 1.1 (hSAA1.1), without the N-terminal methionine (from UniProt P0DJI8 19-122) (natural protein)					8 and 6	8 and 6	4 and 8
